Here are results for three substances from publication PMC4936896.

The target of test [1] is hyperstable HIV-1 cores (affinity-purified), as used for TRIM5α binding and imaging (HIV-1 (NL4-3)). The test can be described thus: co-sedimentation. The following applies: scale: CA per TRIM5α_(AGMpyg).
The target in test [2] is hyperstable HIV-1 CA_(A14C,E45C) cores (HIV-1 (NL4-3)). The test can be described thus: cross-linking.
Test [3] concerns the target truncated TRIM5α_(AGMpyg) that lacked the SPRY domain (African green monkey (Chlorocebus pygerythrus)). The test can be described thus: SEC; final gel filtration step, HiLoad 16/600 Superdex 200 in 20 mM CHES, 100 nM ZnCl2, 1 mM TCEP, pH 10.0, 4°C; oligomer judged from retention time. (In general: In gel filtration, larger molecules generally elute earlier.)

The term stoichiometry N denotes a count of units in the complex or per binding partner. With “African green monkey TRIM5α (Chlorocebus pygerythrus) (from UniProt Q5C8U4 1-515) (natural protein)”, the stoichiometry N in test [1] was found to be 7. In test [2], “hyperstable HIV-1 CA_(A14C,E45C) cores (complex)” gave a stoichiometry N of 6. On to “truncated TRIM5α_(AGMpyg) that lacked the SPRY domain (domain or fragment)”, for which, in test [3], the stoichiometry N turned out to be 2.
